Experimental findings from article PMC9417184 are described below.

Assay [1] deals with Gallionella sp. form II RuBisCO R98A (Gallionella sp.). Description: SEC-MALS + other: SAXS; SEC-SAXS-MALS; RuBisCO at 2 to 5 mg/ml, activated with excess NaHCO3; Shodex KW-803 column; 20 mM Hepes-OH pH 8.0, 300 mM NaCl, 10 mM MgCl2, 10 mM NaHCO3; oligomeric state of the enzyme. For orientation: In gel filtration, larger molecules generally elute earlier.
The target in assay [2] is Gallionella sp. form II RuBisCO, wild type (GWS1B) (Gallionella sp.). Described as above.
The target in assay [3] is Gallionella sp. form II RuBisCO R131A (Gallionella sp.). The assay is described as above.
Assay [4] concerns the target Insolitispirillum peregrinum form II RuBisCO, wild type (Insolitispirillum peregrinum). The description is as above.
Assay [5] concerns the target Sulfurivirga caldicuralii form II RuBisCO (Sulfurivirga caldicuralii). The assay is described as above.
Assay [6] shares this target. Description: crystal structure; X-ray; RuBisCO activated and incubated with a tenfold molar excess of CABP; molecular replacement.
In assay [7] the target is Rhodospirillaceae bacterium BRH_c57 form II RuBisCO (Rhodospirillaceae bacterium BRH_c57). Kind of assay: SEC-MALS + other: SAXS; SEC-SAXS-MALS; RuBisCO at 2 to 5 mg/ml, activated with excess NaHCO3; Shodex KW-803 column; 20 mM Hepes-OH pH 8.0, 300 mM NaCl, 10 mM MgCl2, 10 mM NaHCO3; oligomeric state of the enzyme.
For assay [8] the target is unchanged. Description: crystal structure; X-ray; RuBisCO activated and incubated with a tenfold molar excess of CABP; molecular replacement.

For the substance “Gallionella sp. form II RuBisCO R98A (enzyme)”, in assay [1], the stoichiometry N worked out at 2.
“Gallionella sp. form II RuBisCO, wild type (GWS1B) (enzyme)”: the stoichiometry N in assay [2] was determined as 6.
Take “Gallionella sp. form II RuBisCO R131A (enzyme)”: the stoichiometry N in assay [3] is 2.
Consider “Insolitispirillum peregrinum form II RuBisCO, wild type (enzyme)”, for which the stoichiometry N in assay [4] amounted to 2.
As to “Sulfurivirga caldicuralii form II RuBisCO (enzyme)”, the stoichiometry N in assay [5] and in assay [6] was 4 in each case.
On to “Rhodospirillaceae bacterium BRH_c57 form II RuBisCO (enzyme)”, for which the stoichiometry N in assay [7] and in assay [8] was 6 in each case.

Usually stoichiometry N stands for a count of units in the complex or per binding partner.
